Measurements: publication PMC1851628 (Nucleic Acids Research, 2007)

Target: the molecule itself
Experiment: AUC

B1: RepB initiator protein of plasmid pMV158 (natural protein, UniProt P13921 1-210, looked up)
chain: MAKEKARYFTFLLYPESIPSDWELKLETLGVPMAISPLHDKDKSSIKGQKYKKAHYHVLYIAKNPVTADSVRKKIKLLLGEKSLAMVQVVLNVENMYLYLTHESKDAIAKKKHVYDKADIKLINNFDIDRYVTLDVEEKTELFNVVVSLIRAYTLQNIFDLYDFIDENGETYGLTINLVNEVIAGKTGFMKLLFDGAYQRSKRGTKNEER
stoichiometry N: 6
